Data on one substance can be found in patent US20250197889A1.

In the experiment the target is humanized Nme2Cas9 expressed in HEK293T cells from a plasmid (Neisseria meningitidis strain De11444 (also printed De10444)). Description: cell-based or functional assay.

For AcrIIC4Hpa, the fold decrease in genome editing in HEK293T cells at various ratios of Acr to Cas9 plasmid came to 4 fold.
